Bridge positions count the residues as written; N and C are the ends. Square brackets hold non-standard residues; d marks the D form. Primed or numbered codes have the meaning given here. Side chains are listed from the residue outwards. Ends that are not written are not given here. Gd^D = GdDOTAGA (gadolinium DOTAGA chelate); Bip = N[C@@H](Cc1ccc(-c2ccccc2)cc1)C(=O)O; Gd^T(3) = GdDTPA attached via thiourea; Phg = N[C@H](C(=O)O)c1ccccc1; Dab = NCC[C@H](N)C(=O)O; Gd^T″ = GdDTPA-thiourea; Dap = NC[C@H](N)C(=O)O
B1: Compound ID 1005 (peptide)
peptide: {Gd^T″}-GK([Gly-Gd^T″])WHCYT[Dab](Gd^T″)FPHHYCVY[Bip]
modifications: disulfide 5-14
B2: Compound ID 1009 (peptide)
peptide: {Gd^T″}-GK([Gly-Gd^T″])WHCYTK(Gd^T″)FPHHYCVY[Bip]R
modifications: disulfide 5-14
B3: Compound ID 974 (peptide)
peptide: {Gd^T″}-GK([Gly-Gd^T″])WHCYTYFPHHYCVYGK(Gd^T″)
modifications: disulfide 5-14 (inferred); not fully specified (C-terminus)
B4: Compound ID 994 (peptide)
peptide: {Gd^T″}-GQWHCYTYFPHHYCLYGK(Gd^T″)
modifications: disulfide 5-14 (inferred); not fully specified (C-terminus)
B5: Compound ID 985 (peptide)
peptide: {Gd^T″}-GK([Gly-Gd^T″])WHCYTYFPHHYCLYFK(Gd^T″)
modifications: disulfide 5-14 (inferred); not fully specified (C-terminus)
B6: Compound ID 995 (peptide)
peptide: {Gd^T″}-GK([Gly-Gd^T″])WHCYTK(Gd^T″)FPHHYCLYGK(Gd^T″)
modifications: disulfide 5-14 (inferred)
B7: Compound ID 993 (peptide)
peptide: {Gd^T″}-GQWHCYTK(Gd^T″)FPHHYCLYGK(Gd^T″)
modifications: disulfide 5-14 (inferred); not fully specified (C-terminus)
B8: Compound ID 975 (peptide)
peptide: {Gd^T″}-GK([Gly-Gd^T″])WHCYTYFPHHYCVYYK(Gd^T″)
modifications: disulfide 5-14 (inferred); not fully specified (C-terminus)
B9: Compound ID 976 (peptide)
peptide: {Gd^T″}-GK([Gly-Gd^T″])WHCTTYFPHHYCLYYK(Gd^T″)
modifications: disulfide 5-14 (inferred); not fully specified (C-terminus)
B10: Compound ID 987 (peptide)
peptide: {Gd^T″}-GK([Gly-Gd^T″])WHCYTYFPHHYCLYYK(Gd^T″)
modifications: disulfide 5-14 (inferred); not fully specified (C-terminus)
B11: Compound ID 989 (peptide)
peptide: {Gd^T″}-GK([Gly-Gd^T″])WHCYTYFPHHYCLYVK(Gd^T″)
modifications: disulfide 5-14 (inferred); not fully specified (C-terminus)
B12: Compound ID 988 (peptide)
peptide: {Gd^T″}-GK([Gly-Gd^T″])WHCYTYFPHHYCLY[dY]K(Gd^T″)
modifications: disulfide 5-14 (inferred); not fully specified (C-terminus)
B13: Compound ID 1016 (peptide)
peptide: {Gd^D}-K(Gd^D)K(Gd^D)AWHCYTYFPHHYCVYG
modifications: disulfide 6-15 (inferred)
B14: Compound ID 1018 (peptide)
peptide: {Gd^D}-K(Gd^D)K(Gd^D)YWHCYTYFPHHYCVYG
modifications: disulfide 6-15 (inferred)
B15: Compound ID 1017 (peptide)
peptide: {Gd^D}-K(Gd^D)K(Gd^D)LWHCYTYFPHHYCVYG
modifications: disulfide 6-15 (inferred)
B16: Compound ID 1008 (peptide)
peptide: {Gd^T″}-K(Gd^T″)WHCYTK(Gd^T″)FPHHYCVY[Bip]
modifications: disulfide 4-13
B17: Compound ID 1015 (peptide)
peptide: {Gd^D}-K(Gd^D)K(Gd^D)GWHCYTYFPHHYCTYG
modifications: disulfide 6-15 (inferred)
B18: Compound ID 1002 (peptide)
peptide: {Gd^T″}-[Dap](Gd^T″)[Dap]([Dap-Gd^T″-Gd^T″])WHCYTYFPHHYCVYG
modifications: disulfide 5-14; also: X2: inner Dap bears two Gd^T
B19: Compound ID 1006 (peptide)
peptide: {Gd^T″}-GK([Gly-Gd^T″])WHCYT[Dap](Gd^T″)FPHHYCVY[Bip]
modifications: disulfide 5-14
B20: Compound ID 1007 (peptide)
peptide: {Gd^T″}-G[Dab]([Gly-Gd^T″])WHCYTK(Gd^T″)FPHHYCVY[Bip]
modifications: disulfide 5-14
B21: Compound ID 1001 (peptide)
peptide: {Gd^D}-GK([Gly-Gd^D])WHCTTK(Gd^D)FPHHYCLY[Bip]
modifications: disulfide 5-14
B22: Compound ID 977 (peptide)
peptide: {Gd^T(3)}-GK([Gly-Gd^T(3)])WHCTTYFPHHYCLY[Bip]K(Gd^T(3))
modifications: disulfide 5-14; not fully specified (C-terminus)
B23: Compound ID 986 (peptide)
peptide: {Gd^T(3)}-GK([Gly-Gd^T(3)])WHCYTYFPHHYCLY[Phg]K(Gd^T(3))
modifications: disulfide 5-14; not fully specified (C-terminus)
B24: Compound ID 1010 (peptide)
peptide: {Gd^T″}-GK([Gly-Gd^T″])WHCYTK(Gd^T″)FPHHYCVYYY
modifications: disulfide 5-14 (inferred)
B25: Compound ID 981 (peptide)
peptide: {Gd^T″}-GYK([Tyr-Gly-Gd^T″])WHCTTYFPHHYCLYG
modifications: disulfide 6-15 (inferred); not fully specified (C-terminus)
B26: Compound ID 984 (peptide)
peptide: {Gd^T″}-GHK([His-Gly-Gd^T″])WHCTTYFPHHYCLYG
modifications: disulfide 6-15 (inferred); not fully specified (C-terminus)
B27: Compound ID 982 (peptide)
peptide: {Gd^T″}-GVK([Val-Gly-Gd^T″])WHCTTYFPHHYCLYG
modifications: disulfide 6-15 (inferred); not fully specified (C-terminus)
B28: Compound ID 983 (peptide)
peptide: {Gd^T″}-GFK([Phe-Gly-Gd^T″])WHCTTYFPHHYCLYG
modifications: disulfide 6-15 (inferred); not fully specified (C-terminus)
B29: Compound ID 1004 (peptide)
peptide: {Gd^T″}-GK([Gly-Gd^T″])WHCYTK(Gd^T″)FPHHYCVY[Bip]
modifications: disulfide 5-14
B30: Compound ID 1012 (peptide)
peptide: {Gd^T″}-GK([Gly-Gd^T″])WHCYTK(Gd^T″)FPHHYCK(Gd^T″)Y[Bip]
modifications: disulfide 5-14
B31: SEQ ID NO 94 (peptide)
peptide: WTDCQWMDEQLWTCRWD
modifications: disulfide 4-14 (inferred)
notes: cyclic, disulfide
B32: SEQ ID NO 95 (peptide)
peptide: WTDCQWMDEQIWTCRWD
modifications: disulfide 4-14 (inferred)
notes: cyclic, disulfide
B33: SEQ ID NO 5 (peptide)
peptide: NWKCWGVVKWECIWA
modifications: disulfide 4-12 (inferred)
notes: cyclic, disulfide
B34: SEQ ID NO 100 (peptide)
peptide: WWGCRQGTGEHWSHCMWF
modifications: disulfide 4-15 (inferred)
notes: cyclic, disulfide
B35: SEQ ID NO 97 (peptide)
peptide: WISCESSEEKISYCWRA
modifications: disulfide 4-14 (inferred)
notes: cyclic, disulfide
B36: SEQ ID NO 96 (peptide)
peptide: WQLCSSRNDHVAYCFVS
modifications: disulfide 4-14 (inferred)
notes: cyclic, disulfide
B37: SEQ ID NO 102 (peptide)
peptide: WAYCMTDPSGKYRYCQNW
modifications: disulfide 4-15 (inferred)
notes: cyclic, disulfide
B38: SEQ ID NO 93 (peptide)
peptide: WWACQKGQHDWEKCHWL
modifications: disulfide 4-14 (inferred)
notes: cyclic, disulfide
B39: SEQ ID NO 101 (peptide)
peptide: WWTCHMTWSGQWDSCKWH
modifications: disulfide 4-15 (inferred)
notes: cyclic, disulfide

Biological target: T1, rat collagen, acid soluble, type I, rat tail (Upstate 08-115) (rat, UniProt P02454 152-1207; P02466 86-1125)
T1 construct: tissue extract, gelled and dried in wells; also called dried rat collagen
T1 sequence (P02454 152-1207, chain 1 of 2): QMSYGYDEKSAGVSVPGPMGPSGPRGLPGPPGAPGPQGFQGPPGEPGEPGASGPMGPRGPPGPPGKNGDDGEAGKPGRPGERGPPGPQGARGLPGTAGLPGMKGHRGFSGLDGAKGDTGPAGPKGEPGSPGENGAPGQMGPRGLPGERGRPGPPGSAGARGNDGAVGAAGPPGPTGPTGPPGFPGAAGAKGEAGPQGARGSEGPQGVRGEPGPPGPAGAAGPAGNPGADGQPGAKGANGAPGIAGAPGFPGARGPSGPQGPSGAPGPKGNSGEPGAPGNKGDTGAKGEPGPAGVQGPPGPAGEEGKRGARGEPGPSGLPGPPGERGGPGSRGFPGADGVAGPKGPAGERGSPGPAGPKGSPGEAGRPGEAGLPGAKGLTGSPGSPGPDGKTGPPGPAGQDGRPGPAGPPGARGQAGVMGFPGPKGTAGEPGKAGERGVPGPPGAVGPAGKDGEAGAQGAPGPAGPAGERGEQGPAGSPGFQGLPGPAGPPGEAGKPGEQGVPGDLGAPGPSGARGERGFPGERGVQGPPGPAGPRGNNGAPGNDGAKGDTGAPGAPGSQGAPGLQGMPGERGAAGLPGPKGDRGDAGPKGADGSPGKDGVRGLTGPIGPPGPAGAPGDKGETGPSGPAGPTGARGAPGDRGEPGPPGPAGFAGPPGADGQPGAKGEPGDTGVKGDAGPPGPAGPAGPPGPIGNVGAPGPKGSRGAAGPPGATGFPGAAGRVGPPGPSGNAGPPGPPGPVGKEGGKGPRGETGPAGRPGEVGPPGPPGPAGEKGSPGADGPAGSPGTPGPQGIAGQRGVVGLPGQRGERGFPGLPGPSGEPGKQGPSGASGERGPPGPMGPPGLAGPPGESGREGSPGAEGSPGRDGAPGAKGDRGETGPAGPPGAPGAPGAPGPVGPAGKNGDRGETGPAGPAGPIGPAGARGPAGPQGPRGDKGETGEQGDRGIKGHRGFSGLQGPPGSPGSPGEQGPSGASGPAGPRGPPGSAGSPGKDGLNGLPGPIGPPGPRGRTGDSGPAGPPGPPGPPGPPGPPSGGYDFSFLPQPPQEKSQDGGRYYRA
T1 sequence (P02466 86-1125, chain 2 of 2): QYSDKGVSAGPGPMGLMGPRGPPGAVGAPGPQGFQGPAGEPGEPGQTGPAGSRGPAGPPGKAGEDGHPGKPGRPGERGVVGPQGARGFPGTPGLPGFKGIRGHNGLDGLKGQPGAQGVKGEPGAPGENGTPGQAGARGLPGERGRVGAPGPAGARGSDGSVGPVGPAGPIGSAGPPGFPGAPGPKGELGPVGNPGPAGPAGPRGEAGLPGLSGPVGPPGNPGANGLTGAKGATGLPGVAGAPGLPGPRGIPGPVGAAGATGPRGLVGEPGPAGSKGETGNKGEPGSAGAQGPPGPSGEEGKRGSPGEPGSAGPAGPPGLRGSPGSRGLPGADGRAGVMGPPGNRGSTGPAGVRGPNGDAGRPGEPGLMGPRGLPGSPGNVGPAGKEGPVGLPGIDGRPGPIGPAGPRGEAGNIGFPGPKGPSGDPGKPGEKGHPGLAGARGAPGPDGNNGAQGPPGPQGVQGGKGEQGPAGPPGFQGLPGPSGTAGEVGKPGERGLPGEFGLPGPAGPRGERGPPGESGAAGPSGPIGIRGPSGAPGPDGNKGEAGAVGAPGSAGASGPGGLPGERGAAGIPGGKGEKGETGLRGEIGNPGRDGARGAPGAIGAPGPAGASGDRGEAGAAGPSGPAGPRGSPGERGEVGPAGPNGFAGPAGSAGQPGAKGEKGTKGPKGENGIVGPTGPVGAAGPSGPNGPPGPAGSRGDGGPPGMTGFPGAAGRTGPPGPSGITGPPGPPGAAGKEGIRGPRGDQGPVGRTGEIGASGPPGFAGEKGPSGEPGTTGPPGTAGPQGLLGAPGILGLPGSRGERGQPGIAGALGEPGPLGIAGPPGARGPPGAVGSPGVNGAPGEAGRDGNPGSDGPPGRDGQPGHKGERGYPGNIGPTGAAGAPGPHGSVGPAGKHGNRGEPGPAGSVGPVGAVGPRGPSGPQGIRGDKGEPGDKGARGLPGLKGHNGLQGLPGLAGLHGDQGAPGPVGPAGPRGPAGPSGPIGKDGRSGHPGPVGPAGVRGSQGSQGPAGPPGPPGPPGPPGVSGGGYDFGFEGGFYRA
Experiment: dried collagen assay

% bound [%]	Binder
95	B1
96	B2
69	B3
84	B4
68	B5
42	B6
70	B7
64	B8
57	B9
68	B10
74	B11
71	B12
50	B13
55	B14
18	B15
93	B16
30	B17
45	B18
87	B19
92	B20
81	B21
43	B22
67	B23
89	B24
81	B25
69	B26
47	B27
59	B28
90	B29
92	B30

Biological target: T2, human collagen type I, acid soluble, extracted from placenta (Sigma C7774) (human, UniProt P02452 162-1218; P08123 80-1119)
T2 construct: tissue extract, gelled and dried in wells; also called dried human collagen; h-Collagen
T2 sequence (P02452 162-1218 limits assumed, chain 1 of 2): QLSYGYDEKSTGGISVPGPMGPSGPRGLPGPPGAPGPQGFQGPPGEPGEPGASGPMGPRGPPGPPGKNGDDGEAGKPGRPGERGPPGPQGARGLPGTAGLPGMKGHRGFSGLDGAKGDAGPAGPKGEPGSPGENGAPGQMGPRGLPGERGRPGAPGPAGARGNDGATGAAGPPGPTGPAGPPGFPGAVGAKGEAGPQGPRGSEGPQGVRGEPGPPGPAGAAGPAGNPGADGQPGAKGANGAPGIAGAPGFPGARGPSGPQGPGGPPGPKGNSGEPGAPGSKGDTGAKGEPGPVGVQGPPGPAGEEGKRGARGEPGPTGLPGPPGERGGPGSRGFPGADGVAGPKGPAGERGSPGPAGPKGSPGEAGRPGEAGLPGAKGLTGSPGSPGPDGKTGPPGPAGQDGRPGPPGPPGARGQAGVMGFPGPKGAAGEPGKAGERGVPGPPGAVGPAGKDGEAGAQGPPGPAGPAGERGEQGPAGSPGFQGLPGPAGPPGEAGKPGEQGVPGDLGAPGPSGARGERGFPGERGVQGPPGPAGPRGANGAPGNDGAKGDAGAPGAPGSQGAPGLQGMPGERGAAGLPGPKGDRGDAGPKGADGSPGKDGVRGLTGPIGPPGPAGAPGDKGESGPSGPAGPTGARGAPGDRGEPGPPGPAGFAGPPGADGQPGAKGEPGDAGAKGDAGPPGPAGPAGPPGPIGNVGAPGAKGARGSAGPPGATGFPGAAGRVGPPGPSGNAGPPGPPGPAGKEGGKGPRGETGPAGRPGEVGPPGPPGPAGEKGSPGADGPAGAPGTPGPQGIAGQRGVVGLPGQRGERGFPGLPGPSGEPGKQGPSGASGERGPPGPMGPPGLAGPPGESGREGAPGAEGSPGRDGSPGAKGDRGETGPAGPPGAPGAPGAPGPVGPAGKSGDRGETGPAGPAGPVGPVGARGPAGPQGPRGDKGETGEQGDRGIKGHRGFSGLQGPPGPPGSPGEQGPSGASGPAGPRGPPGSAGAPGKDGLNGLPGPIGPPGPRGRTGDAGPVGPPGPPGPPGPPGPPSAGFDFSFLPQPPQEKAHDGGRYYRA
T2 sequence (P08123 80-1119 limits assumed, chain 2 of 2): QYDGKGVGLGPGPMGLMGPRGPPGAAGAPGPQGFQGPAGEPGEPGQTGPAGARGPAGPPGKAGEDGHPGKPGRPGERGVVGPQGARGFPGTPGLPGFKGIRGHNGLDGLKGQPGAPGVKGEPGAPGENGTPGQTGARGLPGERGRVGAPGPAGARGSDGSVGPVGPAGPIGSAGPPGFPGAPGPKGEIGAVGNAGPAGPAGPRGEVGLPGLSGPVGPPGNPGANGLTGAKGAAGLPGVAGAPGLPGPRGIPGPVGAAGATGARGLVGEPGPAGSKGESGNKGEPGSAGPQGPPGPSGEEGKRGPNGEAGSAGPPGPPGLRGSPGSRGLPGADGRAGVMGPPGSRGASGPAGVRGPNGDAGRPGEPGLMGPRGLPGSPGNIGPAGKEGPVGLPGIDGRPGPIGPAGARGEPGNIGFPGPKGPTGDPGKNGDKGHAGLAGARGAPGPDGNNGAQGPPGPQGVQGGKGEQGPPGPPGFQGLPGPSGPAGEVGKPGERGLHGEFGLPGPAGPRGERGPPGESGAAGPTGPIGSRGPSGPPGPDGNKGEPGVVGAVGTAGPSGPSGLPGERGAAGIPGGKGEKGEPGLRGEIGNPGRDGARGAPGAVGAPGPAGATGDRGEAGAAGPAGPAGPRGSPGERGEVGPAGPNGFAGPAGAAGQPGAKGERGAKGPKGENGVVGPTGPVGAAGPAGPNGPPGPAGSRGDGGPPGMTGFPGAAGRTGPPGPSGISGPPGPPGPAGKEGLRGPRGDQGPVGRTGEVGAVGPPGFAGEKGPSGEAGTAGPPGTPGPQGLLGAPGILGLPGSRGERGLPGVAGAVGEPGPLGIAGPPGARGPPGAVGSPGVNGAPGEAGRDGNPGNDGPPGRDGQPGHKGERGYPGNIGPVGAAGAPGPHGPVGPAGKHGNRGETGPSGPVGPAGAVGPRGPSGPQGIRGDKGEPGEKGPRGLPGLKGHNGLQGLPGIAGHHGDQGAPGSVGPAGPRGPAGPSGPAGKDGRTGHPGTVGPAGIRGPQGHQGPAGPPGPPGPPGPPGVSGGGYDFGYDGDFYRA
Experiment: dried collagen assay

% bound [%]	Binder
90	B1
93	B2
71	B3
86	B4
56	B5
51	B6
75	B7
70	B8
62	B9
62	B10
67	B11
69	B12
48	B13
53	B14
25	B15
94	B16
29	B17
44	B18
89	B19
87	B20
83	B21
40	B22
60	B23
92	B24
73	B25
67	B26
40	B27
58	B28
91	B29
91	B30

Biological target: T2, human collagen type I, acid soluble, …
Experiment: dried collagen assay
Remark: another data set of the same source
Description: An additional 90 μL is reserved in a HPLC glass vial as a measure of the total concentration.

% bound [%]	Binder
21	B31
5	B32
24	B33
67	B34
13	B35
17	B36
31	B37
5	B38
56	B39

Reference: patent publication US20080044360A1 (COLLAGEN MEDICAL, published 2008)
